Paper PMC12416549 (2024)
Where a chain is given by its changes, count along the chain named. Names and notes keep the numbering of the source.

T1: TNFR1 (Homo sapiens, UniProt P19438)
T1 chain: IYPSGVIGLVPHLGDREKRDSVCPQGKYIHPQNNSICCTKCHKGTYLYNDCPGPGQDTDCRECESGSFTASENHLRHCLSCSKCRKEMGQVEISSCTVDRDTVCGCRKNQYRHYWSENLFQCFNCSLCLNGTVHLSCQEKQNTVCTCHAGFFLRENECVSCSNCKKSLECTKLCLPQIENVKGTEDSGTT

B1: K15P (designed binder)
chain: SMEEEVEKAAKEYEPKKKEAIEKHLEKLKAKDKEAAERFLKELEEAAKEYAKDEAKTMSEEEAKRRAKKYKEKVLLSELSEEEQKEIKEAEEKLVRTILKYVEEAAK
B2: A106F (designed binder)
chain: B1 chain with P15K, A106F
B3: K73A (designed binder)
chain: B1 chain with P15K, K73A
B4: H24E (designed binder)
chain: B1 chain with P15K, H24E
B5: K16A (designed binder)
chain: B1 chain with P15K, K16A
B6: E7R (designed binder)
chain: B1 chain with E7R, P15K
B7: K69A (designed binder)
chain: B1 chain with P15K, K69A
B8: K48P (designed binder)
chain: B1 chain with P15K, K48P
B9: L94W (designed binder)
chain: B1 chain with P15K, L94W
B10: E89V (designed binder)
chain: B1 chain with P15K, E89V
B11: A67H (designed binder)
chain: B1 chain with P15K, A67H
B12: A105T (designed binder)
chain: B1 chain with P15K, A105T
B13: K52W (designed binder)
chain: B1 chain with P15K, K52W
B14: K71Q (designed binder)
chain: B1 chain with P15K, K71Q
B15: Q84R (designed binder)
chain: B1 chain with P15K, Q84R
B16: I21P (designed binder)
chain: B1 chain with P15K, I21P
B17: K23P (designed binder)
chain: B1 chain with P15K, K23P
B18: A35M (designed binder)
chain: B1 chain with P15K, A35M
B19: S80P (designed binder)
chain: B1 chain with P15K, S80P
B20: K31M (designed binder)
chain: B1 chain with P15K, K31M
B21: E72P (designed binder)
chain: B1 chain with P15K, E72P
B22: T57G (designed binder)
chain: B1 chain with P15K, T57G
B23: K41F (designed binder)
chain: B1 chain with P15K, K41F
B24: E62R (designed binder)
chain: B1 chain with P15K, E62R
B25: F39T (designed binder)
chain: B1 chain with P15K, F39T
B26: R38A (designed binder)
chain: B1 chain with P15K, R38A
B27: E26S (designed binder)
chain: B1 chain with P15K, E26S
B28: E14W (designed binder)
chain: B1 chain with E14W, P15K
B29: Y70H (designed binder)
chain: B1 chain with P15K, Y70H
B30: A63P (designed binder)
chain: B1 chain with P15K, A63P
B31: V95E (designed binder)
chain: B1 chain with P15K, V95E
B32: K56M (designed binder)
chain: B1 chain with P15K, K56M
B33: K71E (designed binder)
chain: B1 chain with P15K, K71E
B34: L43M (designed binder)
chain: B1 chain with P15K, L43M
B35: E4L (designed binder)
chain: B1 chain with E4L, P15K
B36: K88G (designed binder)
chain: B1 chain with P15K, K88G
B37: L76D (designed binder)
chain: B1 chain with P15K, L76D
B38: A51L (designed binder)
chain: B1 chain with P15K, A51L
B39: A105E (designed binder)
chain: B1 chain with P15K, A105E
B40: A47V (designed binder)
chain: B1 chain with P15K, A47V
B41: K29M (designed binder)
chain: B1 chain with P15K, K29M
B42: I21H (designed binder)
chain: B1 chain with P15K, I21H
B43: K41R (designed binder)
chain: B1 chain with P15K, K41R
B44: K11C (designed binder)
chain: B1 chain with K11C, P15K
B45: K16N (designed binder)
chain: B1 chain with P15K, K16N
B46: D32A (designed binder)
chain: B1 chain with P15K, D32A
B47: A20G (designed binder)
chain: B1 chain with P15K, A20G
B48: L99T (designed binder)
chain: B1 chain with P15K, L99T
B49: K16I (designed binder)
chain: B1 chain with P15K, K16I
B50: A90R (designed binder)
chain: B1 chain with P15K, A90R
B51: E44I (designed binder)
chain: B1 chain with P15K, E44I
B52: Y50D (designed binder)
chain: B1 chain with P15K, Y50D
B53: E7C (designed binder)
chain: B1 chain with E7C, P15K
B54: E42G (designed binder)
chain: B1 chain with P15K, E42G
B55: E91S (designed binder)
chain: B1 chain with P15K, E91S
B56: K41C (designed binder)
chain: B1 chain with P15K, K41C
B57: L75T (designed binder)
chain: B1 chain with P15K, L75T
B58: I98V (designed binder)
chain: B1 chain with P15K, I98V
B59: I98W (designed binder)
chain: B1 chain with P15K, I98W

Target: T1, TNFR1
Experiment: yeast display SC50

apparent Kd (screen)	Binder
6.43 nM	B1
13.8 nM	B2
12.5 nM	B3
0.49 nM	B4
2.73 nM	B5
5.84 nM	B6
0.49 nM	B7
12.5 nM	B8
0.446 nM	B9
2.73 nM	B10
10.4 nM	B11
0.869 nM	B12
5.31 nM	B13
0.446 nM	B14
1.4 nM	B15
13.8 nM	B16
11.4 nM	B17
0.446 nM	B18
0.446 nM	B19
0.49 nM	B20

apparent Kd (screen)	Binder
1.05 nM	B21
10.4 nM	B22
0.718 nM	B23
0.49 nM	B24
2.73 nM	B25
2.73 nM	B26
0.539 nM	B27
10.4 nM	B28
5.31 nM	B29
6.43 nM	B30
11.4 nM	B31
0.718 nM	B32
2.73 nM	B33
1.86 nM	B34
0.79 nM	B35
0.49 nM	B36
1.16 nM	B37
2.73 nM	B38
0.446 nM	B39
0.49 nM	B40

apparent Kd (screen)	Binder
0.869 nM	B41
1.05 nM	B42
0.869 nM	B43
1.69 nM	B44
0.335 nM	B45
1.4 nM	B46
2.73 nM	B47
5.31 nM	B48
0.446 nM	B49
0.446 nM	B50
0.956 nM	B51
7.78 nM	B52
6.43 nM	B53
12.5 nM	B54
10.4 nM	B55
0.49 nM	B56
0.446 nM	B57
11.4 nM	B58
1.86 nM	B59
